Experimental data as given in publication PMC5788864.

Experiments:
[1] = biological target: Zika virus NS5 RNA-dependent polymerase (RdRp) domain, amino acids 275-903, strain FSS13025, HA-tag (Zika virus strain FSS13025); assay: co-IP
[2] = biological target: Zika virus NS5 methyltransferase (MTase) domain, amino acids 1-264, strain FSS13025, HA-tag (Zika virus strain FSS13025); assay: co-IP

B1: interferon regulatory factor 3 (IRF3), endogenous (natural protein)
chain: MGTPKPRILPWLVSQLDLGQLEGVAWVNKSRTRFRIPWKHGLRQDAQQEDFGIFQAWAEATGAYVPGRDKPDLPTWKRNFRSALNRKEGLRLAEDRSKDPHDPHKIYEFVNSGVGDFSQPDTSPDTNGGGSTSDTQEDILDELLGNMVLAPLPDPGPPSLAVAPEPCPQPLRSPSLDNPTPFPNLGPSENPLKRLLVPGEEWEFEVTAFYRGRQVFQQTISCPEGLRLVGSEVGDRTLPGWPVTLPDPGMSLTDRGVMSYVRHVLSCLGGGLALWRAGQWLWAQRLGHCHTYWAVSEELLPNSGHGPDGEVPKDKEGGVFDLGPFIVDLITFTEGSGRSPRYALWFCVGESWPQDQPWTKRLVMVKVVPTCLRALVEMARVGGASSLENTVDLHISNSHPLSLTSDQYKAYLQDLVEGMDFQGPGES
In the case of B1, the percent of the full-length NS5 binding activity to IRF3 [1] is reported as 51% and the percent of the full-length NS5 binding activity to IRF3 [2] is reported as 82%.
